Reference: article PMC9388626, “STUB1 is an intracellular checkpoint for interferon gamma sensing” (Scientific Reports, 2022)
One block for each binder: values may come before it.

Legend:
[1] = target: T1, Recombinant STUB1 protein, spanning aa25-aa153 (UniProt Q9UNE7 25-153); test: FP
T1 chain: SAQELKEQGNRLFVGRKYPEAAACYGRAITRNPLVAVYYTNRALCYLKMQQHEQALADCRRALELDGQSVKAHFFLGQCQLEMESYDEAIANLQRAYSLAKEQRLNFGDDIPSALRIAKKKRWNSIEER

[2] = target: T1, Recombinant STUB1 protein, spanning …; test: ITC
[3] = target: T2, Recombinant STUB1 protein, spanning aa25-aa153 (UniProt Q9UNE7 25-153); test: ITC; peptide (200 µM) injected into STUB1 aa25-aa153 (20 µM); 25 °C; PBS pH 7.4, 0.5 mM TCEP, 2% DMSO; one-site binding model; settings: both partners purified
T2 construct: STUB1 (E3 ligase, also STUB1/CHIP), residues 25-153; also called STUB1 (aa25–aa153); CHIP; source: recombinant, produced by Nanyang Technological University protein production platform; purity and identity confirmed by mass spectrometry and SDS-PAGE
T2 sequence (looked up): T1 chain

[4] = target: T2, Recombinant STUB1 protein, spanning …; test: fluorescence polarisation; competitive; 15 nM tracer 5-FAM-…, 1 µM STUB1 aa25-aa153, peptide of interest 5 nM to 100 µM; room temperature; PBS pH 7.4, 0.01% v/v Tween 20; 30 min incubation; settings: both partners purified
[5] = target: T2, Recombinant STUB1 protein, spanning …; test: thermal shift assay; SYPRO Orange; 100 µM peptide, 10 µM STUB1 aa25-aa153; heated from 25 to 95 °C in 0.5 °C increments; settings: both partners purified

- IC50 [1]: 2.7 µM
- Kd [2]: 2.19 µM
Binder: Ac-TIEEVD-OH

- Kd [3]: 0.014 ± 0.002 µM
- IC50 [4]: 0.34 µM
B1: synthetic inhibitory peptide SIWWPD (peptide)
peptide: Ac-SIWWPD-OH
notes: source: synthetic peptide, custom made by Chinese Peptide Company (CPC)
- ΔTm [5]: 18.3 °C
